T1: recombinant hAng-2 (C-His, R&D Systems) (human, UniProt O15123 19-496)
T1 construct: Bought protein; also called human Ang-2 protein; C-terminal histidine-tagged human Ang2 (R&D Systems); not shown: C-terminal His tag
T1 sequence: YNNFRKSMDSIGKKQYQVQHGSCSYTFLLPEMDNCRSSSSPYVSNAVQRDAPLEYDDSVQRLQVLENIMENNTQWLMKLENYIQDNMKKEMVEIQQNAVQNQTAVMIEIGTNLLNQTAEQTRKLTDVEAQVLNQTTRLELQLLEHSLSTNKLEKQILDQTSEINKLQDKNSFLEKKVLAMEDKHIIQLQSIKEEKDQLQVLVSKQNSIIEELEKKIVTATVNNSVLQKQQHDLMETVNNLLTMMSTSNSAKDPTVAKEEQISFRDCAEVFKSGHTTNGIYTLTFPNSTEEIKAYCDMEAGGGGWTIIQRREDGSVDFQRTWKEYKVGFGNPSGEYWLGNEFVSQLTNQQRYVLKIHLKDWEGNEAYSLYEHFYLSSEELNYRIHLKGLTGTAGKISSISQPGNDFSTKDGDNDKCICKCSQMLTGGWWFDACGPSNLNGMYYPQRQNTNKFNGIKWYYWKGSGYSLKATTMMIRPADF

B1: h10D6-OPTI-1 (antibody, human IgG1, V domains shown)
VH: QVQLQESGPGLVKPSETLSLTCAVSGYSITSDYAWNWIRQPPGKGLEWMGKISYSGKTDYNPSLKSRSTISRDTSKNQFSLKLSSVTAADTAVYYCARGNFEGAMDYWGQGTLVTVSS
VL: DIQMTQSPSSLSASVGDRVTITCKASQSVSNDVAWYQQKPGKAPKLLIYYASNRYPGVPSRFSGSGSGTDFTLTISSLQPEDFATYYCQQDYSSPWTFGQGTKLEIK
B2: h10D6-OPTI-3 (antibody, human IgG1, V domains shown)
VH: EVQLVESGGGLVQPGGSLRLSCAASGYSITSDYAWNWVRQAPGKGLEWMGKISYSGKTDYNPSLKSRSTISRDTSKNTFYLQMNSLRAEDTAVYYCARGNFEGAMDYWGQGTLVTVSS
VL: DIQMTQSPSSLSASVGDRVTITCKASQSVSNDVAWYQQKPGKAPKLLIYYASNRYPGVPSRFSGSGSGTDFTLTISSLQPEDFATYYCQQDYSSPWTFGQGTKLEIK
B3: h10D6-OPTI-2 (antibody, human IgG1, V domains shown)
VH: QVQLQESGPGLVKPSETLSLTCAVSGYSITSDYAWNWIRQPPGKGLEWMGKINYAGNTDYNPSLKSRSTISRDTSKNQFSLKLSSVTAADTAVYYCARGNFEGAMDYWGQGTLVTVSS
VL: DIQMTQSPSSLSASVGDRVTITCKASQSVSNDVAWYQQKPGKAPKLLIYYASNRYPGVPSRFSGSGSGTDFTLTISSLQPEDFATYYCQQDYSSPWTFGQGTKLEIK
B4: 10D6-HU5 (antibody, V domains shown)
VH: QVQLQESGPGLVKPSETLSLTCAVSGYSITSDYAWNWIRQPPGKGLEWIGYINYSGNTDYNPSLKSRVTISVDTSKNQFSLKLSSVTAADTAVYYCARGNFEGAMDYWGQGTLVTVSS
VL: DIQMTQSPSSLSASVGDRVTITCKASQSVSNDVAWYQQKPGKAPKLLIYYASNRYPGVPSRFSGSGSGTDFTLTISSLQPEDFATYYCQQDYSSPWTFGQGTKLEIK
notes: Humanized antibody; also called humanized antibody 10D6-HU5
B5: 10D6-HU1 (antibody, V domains shown)
VH: QVQLQESGPGLVKPSETLSLTCAVSGYSISSDYAWNWIRQPPGKGLEWIGYINYSGNTDYNPSLKSRVTISVDTSKNQFSLKLSSVTAADTAVYYCARGNFEGAMDYWGQGTLVTVSS
VL: DIQMTQSPSSLSASVGDRVTITCKASQSVSNDVAWYQQKPGKAPKLLIYYASNRYPGVPSRFSGSGSGTDFTLTISSLQPEDFATYYCQQDYSSPWTFGQGTKLEIK
notes: Humanized antibody; also called humanized antibody 10D6-HU1
B6: h10D6-OPTI-16 (antibody, human IgG1, V domains shown)
VH: EVQLVESGGGLVQPGGSLRLSCAASGYSITSDYAWNWVRQAPGKGLEWMGKISYSGKTDYNPSLKSRSTISRDTSKNTFYLQMNSLRAEDTAVYYCARGNFEGAMDYWGQGTLVTVSS
VL: DIQMTQSPSSLSASVGDRVTITCKASQSVSNDVHWYQQKPGKAPKLLIYYASNRYPGVPSRFSGSGSGTDFTLTISSLQPEDFATYYCQQDYSSPWTFGQGTKLEIK
B7: 10D6-HU3 (antibody, V domains shown)
VH: EVQLVESGGGLVQPGGSLRLSCAASGYSITSDYAWNWVRQAPGKGLEWMGYINYSGNTDYNPSLKSRSTISRDTSKNTFYLQMNSLRAEDTAVYYCARGNFEGAMDYWGQGTLVTVSS
VL: DIQMTQSPSSLSASVGDRVTITCKASQSVSNDVAWYQQKPGKAPKLLIYYASNRYPGVPSRFSGSGSGTDFTLTISSLQPEDFATYYCQQDYSSPWTFGQGTKLEIK
notes: Humanized antibody; also called humanized antibody 10D6-HU3
B8: h10D6-OPTI-43 (antibody, human IgG1, V domains shown)
VH: QVQLQESGPGLVKPSETLSLTCAVSGYSITSDYAWNWIRQPPGKGLEWMGKISYSGKTDYNPSLKSRSTISRDTSKNQFSLKLSSVTAADTAVYYCARGNFEGAMDYWGQGTLVTVSS
VL: DIQMTQSPSSLSASVGDRVTITCKASQSVSNDVHWYQQKPGKAPKLLIYYASNRYPGVPSRFSGSGSGTDFTLTISSLQPEDFATYYCQQDYSSPWTFGQGTKLEIK
B9: h10D6-OPTI-55 (antibody, human IgG1, V domains shown)
VH: QVQLQESGPGLVKPSETLSLTCAVSGYSITSDYAWNWIRQPPGKGLEWMGKINYAGNTDYNPSLKSRSTISRDTSKNQFSLKLSSVTAADTAVYYCARGNFEGAMDYWGQGTLVTVSS
VL: DIQMTQSPSSLSASVGDRVTITCKASQSVSNDVHWYQQKPGKAPKLLIYYASNRYPGVPSRFSGSGSGTDFTLTISSLQPEDFATYYCQQDYSSPWTFGQGTKLEIK
B10: 10D6-HU2 (antibody, V domains shown)
VH: QVQLQESGPGLVKPSETLSLTCAVSGYSITSDYAWNWIRQPPGKGLEWMGYINYSGNTDYNPSLKSRSTISRDTSKNQFSLKLSSVTAADTAVYYCARGNFEGAMDYWGQGTLVTVSS
VL: DIQMTQSPSSLSASVGDRVTITCKASQSVSNDVAWYQQKPGKAPKLLIYYASNRYPGVPSRFSGSGSGTDFTLTISSLQPEDFATYYCQQDYSSPWTFGQGTKLEIK
notes: Humanized antibody; also called humanized antibody 10D6-HU2
B11: h10D6-OPTI-42 (antibody, human IgG1, V domains shown)
VH: QVQLQESGPGLVKPSETLSLTCAVSGYSITSDYAWNWIRQPPGKGLEWIGYINYSGNTDYNPSLKSRVTISVDTSKNQFSLKLSSVTAADTAVYYCARGNFEGAMDYWGQGTLVTVSS
VL: DIQMTQSPSSLSASVGDRVTITCKASQSVSNDVHWYQQKPGKAPKLLIYYASNRYPGVPSRFSGSGSGTDFTLTISSLQPEDFATYYCQHDYSSPFTFGQGTKLEIK
B12: h10D6-OPTI-65 (antibody, human IgG1, V domains shown)
VH: QVQLQESGPGLVKPSETLSLTCAVSGYSITSDYAWNWIRQPPGKGLEWMGKISYSGKTDYNPSLKSRSTISRDTSKNQFSLKLSSVTAADTAVYYCARGNFEGAMDYWGQGTLVTVSS
VL: DIQMTQSPSSLSASVGDRVTITCKASQSVSNDVAWYQQKPGKAPKLLIYYASIPYPGVPSRFSGSGSGTDFTLTISSLQPEDFATYYCQQDYSSPWTFGQGTKLEIK
B13: h10D6-OPTI-67 (antibody, human IgG1, V domains shown)
VH: QVQLQESGPGLVKPSETLSLTCAVSGYSITSDYAWNWIRQPPGKGLEWMGKISYSGKTDYNPSLKSRSTISRDTSKNQFSLKLSSVTAADTAVYYCARGNFEGAMDYWGQGTLVTVSS
VL: DIQMTQSPSSLSASVGDRVTITCKASQSVSNDVHWYQQKPGKAPKLLIYYASIPYPGVPSRFSGSGSGTDFTLTISSLQPEDFATYYCQQDYSSPWTFGQGTKLEIK
B14: h10D6-OPTI-17 (antibody, human IgG1, V domains shown)
VH: EVQLVESGGGLVQPGGSLRLSCAASGYSITSDYAWNWVRQAPGKGLEWMGKINYAGNTDYNPSLKSRSTISRDTSKNTFYLQMNSLRAEDTAVYYCARGNFEGAMDYWGQGTLVTVSS
VL: DIQMTQSPSSLSASVGDRVTITCKASQSVSNDVHWYQQKPGKAPKLLIYYASNRYPGVPSRFSGSGSGTDFTLTISSLQPEDFATYYCQQDYSSPWTFGQGTKLEIK
B15: h10D6-OPTI-4 (antibody, human IgG1, V domains shown)
VH: EVQLVESGGGLVQPGGSLRLSCAASGYSITSDYAWNWVRQAPGKGLEWMGKINYAGNTDYNPSLKSRSTISRDTSKNTFYLQMNSLRAEDTAVYYCARGNFEGAMDYWGQGTLVTVSS
VL: DIQMTQSPSSLSASVGDRVTITCKASQSVSNDVAWYQQKPGKAPKLLIYYASNRYPGVPSRFSGSGSGTDFTLTISSLQPEDFATYYCQQDYSSPWTFGQGTKLEIK
B16: h10D6-OPTI-63 (antibody, human IgG1, V domains shown)
VH: QVQLQESGPGLVKPSETLSLTCAVSGYSITSDYAWNWIRQPPGKGLEWMGKISYSGKTDYNPSLKSRSTISRDTSKNQFSLKLSSVTAADTAVYYCARGNFEGAMDYWGQGTLVTVSS
VL: DIQMTQSPSSLSASVGDRVTITCKASQFVSTDVHWYQQKPGKAPKLLIYYASNRYPGVPSRFSGSGSGTDFTLTISSLQPEDFATYYCQQDYSSPWTFGQGTKLEIK

The target in the assay is T1, recombinant hAng-2 (C-His, R&D Systems). Kind of assay: SPR, BIAcore T100; hAng2 (C-His) captured by anti-His antibody on CM5, antibody as analyte. The protocol: The binding affinity (KD values) of the antibodies to human Ang2 protein was measured by an SPR method using a BIAcore T100 (GE Healthcare). 25 μg/ml anti-His antibody was immobilized on a CM5 sensor chip (GE healthcare) using a pH 5.0 acetate solution and an amine coupling kit (GE Healthcare). 6 μg/ml of a recombinant hAng2 (C-His, R&D Systems) protein was flowed onto the chip to be captured at 100 to 200 RU levels.
As to B1, the Kd is 0.68 nM, the koff is 0.000321 s⁻¹ and the kon is 474000 M⁻¹ s⁻¹.
In the same order, the values of B2 are 0.49 nM, 0.000307 s⁻¹ and 624000 M⁻¹ s⁻¹.
In the same order, the values of B3 are 0.34 nM, 0.000149 s⁻¹ and 424000 M⁻¹ s⁻¹.
For B4, in that order: 64 nM, 0.00312 s⁻¹ and 48600 M⁻¹ s⁻¹.
In the case of B5, the Kd worked out at 84 nM, the koff came to 0.0026 s⁻¹ and the kon was 30800 M⁻¹ s⁻¹.
As to B6, the Kd was 0.92 nM, the koff was 0.000443 s⁻¹ and the kon is 479000 M⁻¹ s⁻¹.
For B7, in that order: 43 nM, 0.00194 s⁻¹ and 45000 M⁻¹ s⁻¹.
In the same order, the values of B8 are 0.38 nM, 0.000576 s⁻¹ and 1.53e+06 M⁻¹ s⁻¹.
For B9, in that order: 0.14 nM, 8.49e-05 s⁻¹ and 621000 M⁻¹ s⁻¹.
As for B10, the Kd was 47 nM, the koff came out at 0.00346 s⁻¹ and the kon turned out to be 73000 M⁻¹ s⁻¹.
As for B11, the Kd is 0.85 nM, the koff was 0.000286 s⁻¹ and the kon came out at 336000 M⁻¹ s⁻¹.
B12: the koff was determined as 2.25e-05 s⁻¹.
With B13, the Kd was determined as 0.000129 nM, the koff came to 2.68e-07 s⁻¹ and the kon was 2.08e+06 M⁻¹ s⁻¹.
Turning to B14, the Kd amounted to 0.76 nM, the koff was found to be 0.00035 s⁻¹ and the kon was 460000 M⁻¹ s⁻¹.
For B15, in that order: 0.33 nM, 0.000246 s⁻¹ and 736000 M⁻¹ s⁻¹.
On to B16, for which the Kd worked out at 0.0277 nM, the koff was found to be 7.42e-05 s⁻¹ and the kon is 2.68e+06 M⁻¹ s⁻¹.
